Assays:
[1] = Aminoacylation activity by Lloyd's method (release of pyrophosphates); format: biochemical
Description: In the second method, Lloyd's method (Nucleic Acids Research, 23:2886-2892, 1995) was carried out without alteration.
In the second method, the activity was assayed by Lloyd's method (Nucleic Acids Research, 23:2886-2892, 1995). Each enzyme obtained was incubated with 0.4 ml of the buffer B containing 1 mM ATP (Seikagaku Corporation), 100 μM purified crude tyrosyl-tRNA, 200 μM tyrosine or 3-iodotyrosine at 37° C. for 6 min. The aminoacylation activity was represented as concentrations of released phosphate per min.

[2] = test system: wheat germ cell-free translation system; experiment: Amber suppression in wheat germ cell-free protein synthesis system (c-H-Ras, 32nd codon amber); format: biochemical
Source text: Production of the protein containing iodotyrosine was attempted by the reaction by a batch method in a wheat germ cell-free protein synthesis system using the resultant VC and an amber suppressor tRNA derived from tyrosine tRNA of E. coli. A short chain type of c-H-Ras added His-tag at the C-terminus via a spacer sequence (Milburn et al., Science 247:939-45, 1990) was used as the target protein. In translation where the template was mRNA made from a construction where the 32nd codon of this protein was replaced by the amber codon, the production of the protein in full length was dependent on coexistence of both TyrRS and the suppressor tRNA (FIG. 2). This proves that the suppressor tRNA used is scarcely aminoacylated by the endogenous aminoacyl-tRNA synthetase in the wheat germs. A synthetic quantity by the amber suppression was 30 to 40% of that of a control with no amber codon. In order to increase the synthetic quantity of the protein, the reaction by the suppression was carried out for 3 days using a dialysis method. […]
The translation reaction was carried out by further adding iodotyrosine at a final concentration of 0.6 mM in addition to the condition of the kit. […] Using an image analyzer FLA-2000 (Fujifilm, Tokyo, Japan), counts of RI of bands on the gel were quantified, or protein bands stained using Cypro-tangerine protein gel stain (Molecular probes) on the gel were quantified.

B1: VC: E. coli TyrRS double variant: position 37 Valine, position 195 Cysteine (protein, UniProt P0AGJ9 2-424, looked up, variant Y37V Q195C)
Tyrosine--tRNA ligase: ASSNLIKQLQERGLVAQVTDEEALAERLAQGPIALVCGFDPTADSLHLGHLVPLLCLKRFQQAGHKPVALVGGATGLIGDPSFKAAERKLNTEETVQEWVDKIRKQVAPFLDFDCGENSAIAANNYDWFGNMNVLTFLRDIGKHFSVNQMINKEAVKQRLNREDQGISFTEFSYNLLQGYDFACLNKQYGVVLCIGGSDQWGNITSGIDLTRRLHQNQVFGLTVPLITKADGTKFGKTEGGAVWLDPKKTSPYKFYQFWINTADADVYRFLKFFTFMSIEEINALEEEDKNSGKAPRAQYVLAEQVTRLVHGEEGLQAAKRITECLFSGSLSALSEADFEQLAQDGVPMVEMEKGADLMQALVDSELQPSRGQARKTIASNAITINGEKQSDPEYFFKEEDRLFGRFTLLRRGKKNYCLICWK
- relative tyrosine analogue to tyrosine ratio ([1]; 3-iodotyrosine versus tyrosine, from Table 4): more than 10
- Initial velocity of release of pyrophosphates, 3-iodotyrosine ([1]; at 37° C., 200 μM 3-iodotyrosine): 9.5 nM PPi/min/nM enzyme
- Initial velocity of release of pyrophosphates, Tyrosine ([1]; at 37° C., 200 μM tyrosine): 0.9 nM PPi/min/nM enzyme
- amber suppression (full-length translation product, SDS-PAGE) ([2]; FIG. 2, 14C-leucine labeled products): amber suppression was observed only when both TyrRS-VC variant and suppressor tRNA were present
- quantity of the production of protein ([2]; dialysis method, 3 days): ≥ 0.1 mg per ml of reaction solution
